Test results reported in PMC7865352, “The Relevance of the SH2 Domain for c-Src Functionality in Triple-Negative Breast Cancer Cells”.

B1: ApSH2.14F (ssDNA)
DNA: GCGGATGAAGACTGGTGTAGACAATGGATACTCCCGCCACCTCCTCCCCCGCCCCCCCGCCCTAAATACGAGCAAC
B2: ApSH2.17F (ssDNA)
DNA: GCGGATGAAGACTGGTGTGCGGTGGTGGGTTGGGTGGGTGGGTTTGCGGGTTGCGTTGGCCCTAAATACGAGCAAC

Biological target: GST-SH2 (c-Src SH2 domain) (human, UniProt P12931 151-248)
Test: ELONA; ELONA with plated GST proteins and digoxigenin-labelled aptamers (buffer not given in material); selection in PBS + 1 mM Mg, 37 C
Details: protein: recombinant, label: digoxigenin

| Binder | binding result | binding result (G-quadruplex examined in silico) |
| --- | --- | --- |
| B1 | binds | – |
| B2 | – | binds |
